According to US20230035798A1 (CAPELLA BIOSCIENCE, published 2023):

T1: recombinant human soluble LIGHT, amino acids 74-240 (R&D Systems 664-LI-025) (human, UniProt O43557 74-240)
T1 construct: range 74-240; also called 74-240 LIGHT; Soluble LIGHT 74-240
T1 chain: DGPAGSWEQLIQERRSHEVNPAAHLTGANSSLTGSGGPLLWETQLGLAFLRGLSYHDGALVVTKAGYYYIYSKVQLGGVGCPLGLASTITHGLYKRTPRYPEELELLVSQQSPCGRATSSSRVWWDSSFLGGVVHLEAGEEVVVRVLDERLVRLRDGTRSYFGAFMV


Columns and labels:
[1] = target: T2, human LIGHT (TNFSF14), full length, membrane-bound (214E allele) (human, UniProt O43557 1-240); test: flow cytometry, maximum signal compared with F19 and F23
T2 construct: also called membrane LIGHT; human membrane LIGHT
Target sequence in this assay (O43557 whole entry K214E): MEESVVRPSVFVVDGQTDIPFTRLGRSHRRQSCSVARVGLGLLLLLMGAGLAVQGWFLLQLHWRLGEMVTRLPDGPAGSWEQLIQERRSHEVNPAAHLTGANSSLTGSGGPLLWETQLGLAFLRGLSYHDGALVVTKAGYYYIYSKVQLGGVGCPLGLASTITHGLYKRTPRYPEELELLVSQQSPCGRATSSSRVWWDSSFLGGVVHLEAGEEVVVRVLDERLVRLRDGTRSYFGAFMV

[2] = target: T2, human LIGHT (TNFSF14), full length, …; test: DcR3-His (1 nM) competition, EL4-LIGHT, flow cytometry; 0.41 nM
Experimental: (§1) EL4-LIGHT cells (0.25×10⁶) were preincubated with anti-membrane LIGHT mAbs (0-300 nM) for 15 min at 4° C. followed by incubation with DcR3-His tagged (1 nM, Creative BioMart; ref: TNFRSF6B-552H, lot: 962512) for 30 min at 4° C. The samples were then incubated with mouse anti-histag antibody (diluted 1:500, Biolegend, cat. no. 652502) for 30 minutes at 4° C., followed by incubation with anti-mouse APC (dil 1:500, BDBiosciences, cat. no. 550826) for 30 minutes at 4° C. The tubes were washed three times after each of the detection antibody stages and flow cytometry analysis was performed. Specific mean fluorescence intensity (MFI) obtained from the binding of DcR3-His to LIGHT on EL4 cells were used to determine the levels of competition binding.
(§2) In humans, LIGHT is neutralized by DcR3, a unique soluble member of the TNFR superfamily, which tightly binds LIGHT (both soluble and membrane forms) and inhibits its interactions with HVEM and LTβR. A major binding determinant for DcR3 neutralization is the region T170-E178 on LIGHT (Liu et al. Structure 2014: 9; 1252-1262). […] In contrast the anti-LIGHT mAb F19, (from EP2292663) which binds both soluble LIGHT and membrane LIGHT equally well completely displaces DcR3 from binding to membrane LIGHT highlighting a surprising an important functional difference between the anti-membrane LIGHT mAbs of this invention and other neutralizing anti-LIGHT mAbs that have been raised against or screened against soluble LIGHT.
Target sequence in this assay (O43557 whole entry K214E): as above

[3] = target: T2, human LIGHT (TNFSF14), full length, …; test: DcR3-His (1 nM) competition, EL4-LIGHT, flow cytometry; 33.3 nM
Experimental: as §1, §2
Target sequence in this assay (O43557 whole entry K214E): as above

[4] = target: T1, recombinant human soluble LIGHT, amino …; test: SPR (BIAcore), as for Table 9
Experimental: (§3) Real-time binding interactions between captured antibody (chimeric anti-membrane LIGHT monoclonal antibody) captured on a biosensor matrix via goat anti-human Fe IgG and recombinant soluble LIGHT were measured by surface plasmon resonance (SPR) using the BIAcore system (GE Healthcare) according to manufacturer's instructions and standard procedures. Briefly, soluble LIGHT was diluted in HBS running buffer (GE Healthcare) and aliquots were injected through the immobilized protein matrices at a flow rate of […]. BIAevaluation software was used to calculate association rate (ka), dissociation rate (kd) and affinity (KD).
The specificity of further anti-membrane LIGHT mAbs to soluble LIGHT was determined by using the same BIAcore analysis discussed above which was used to generate the data in Table 9. In brief, mAbs 3B04, 3D12, 3A07, 3C10 and 2B11 were compared to various prior art antibodies, (F19 and F23 IgG4 mAbs from EP2292663 and 1C02, 13H04 and 31A10 mAbs from WO2015/107331).

[5] = target: T2, human LIGHT (TNFSF14), full length, …; test: membrane LIGHT on cells, as for Table 9
Target sequence in this assay (O43557 whole entry K214E): as above

[6] = target: T2, human LIGHT (TNFSF14), full length, …; test: soluble LIGHT 74-240 KD over membrane LIGHT KD
Target sequence in this assay (O43557 whole entry K214E): as above

[7] = target: T3, soluble LIGHT, amino acids 64-240 (Abcam ab82123) (UniProt O43557 64-240); test: SPR (BIAcore), mAb captured on anti-human Fc, soluble LIGHT in flow
T3 construct: range 64-240; bought protein; also called 64-240 LIGHT; Soluble LIGHT 64-240
Experimental: as §3
The specificity of two lead anti-membrane LIGHT mAbs to soluble LIGHT was determined by BIAcore analysis and compared to the KD calculated from the EC50 values in Table 7 (results in Table 9). In brief, mAbs 3D12, 3B04 were compared to a mAb that binds both soluble and membrane LIGHT, F19, (F19 IgG4 mAb from EP2292663). An irrelevant anti-HEL mAb, 2A11, was used as a negative control. The mAbs were captured on an anti-human Fc mAb coated chip and soluble LIGHT was passed over the surface and the kinetic parameters were calculated using BIAcore 3000 software. The soluble LIGHT preparations used were amino acids 74-240 LIGHT (R&D Systems, 664-LI-025) and 64-240 LIGHT (Abcam, ab82123).

[8] = target: T2, human LIGHT (TNFSF14), full length, …; test: flow cytometry, EL4-LIGHT cells, maximum signal compared with F19 and F23
From the text: FIG. 7 depicts the flow cytometry analysis of the anti-membrane LIGHT mAbs (3B04 and 3D12) binding to LIGHT stably expressed on EL4 cells. The maximum signal of the IgG4 mAbs 3B04 and 3D12 binding to membrane LIGHT is approximately 40000 MFI. In contrast anti-LIGHT mAbs F19 and F23 (IgG4 mAbs from EP2292663) gave a maximal signal of approximately 120000 MFI. The ratio of binding of mAb F19 and mAb F23 is approximately 3 times that of the anti-membrane LIGHT mAbs 3B04 and 3D12. […] Other mAbs of this invention; 2E08, 3A07, 3C10, 3E09 and 2B11 also bind LIGHT in a 1:1 ratio when compared to mAbs F19 and F23 by flow cytometry.

Row | Binder | binding ratio, mAb per LIGHT trimer [1] | DcR3-His binding, % of irrelevant mAb [2] | DcR3-His binding, % of irrelevant mAb [3] | Kd [4] | Kd [5] | Membrane:soluble LIGHT affinity ratio [6] | Kd [7] | koff [7] | kon [7] | binding ratio, mAb per LIGHT trimer [8]
1 | 2E08 (antibody, human IgG4, V domains shown, chimeric human IgG4 (S-to-P, L-to-E at 248), human CL; also called Parental 2E08) VH: QVQMKESGAELVRPGVSVKISCKGSGYTFTDYAIHWVKQSHAKTLEWIGVISTYYGDASYNQKFKGKATMTVDKSSSTAYMELARLTSDDSAIYYCARSRGEYGNYDAMDYWGQGTSVTVSS VL: DIVLTQSPASLAVSLGQRATISCKASQSVDYDGDSYMNWYQQKPGQPPKLLIYAASNLESGIPARFSGSGSGTDFTLNIHPVEEEDAATYYCQQSNEDPLTFGAGTKLELK | 1 mAb per LIGHT trimer | 107% | 78.4% | – | – | – | – | – | – | –
2 | 2B11 (antibody, human IgG4, V domains shown, chimeric human IgG4 (S-to-P, L-to-E at 248), human CL; also called Parental 2B11) VH: EVQLVESGAELVRPGVSVKISCKGSGYTFTDYAIHWVKQSHAKSLEWIGVISTYYGDASYNQKFKGKATMTVDKSSSTAYMELARLTSEDSAIYYCARSRGEYGNYDAMDYWGQGTSVTVSS VL: DIVLTQSPASLAVSLGQRATISCRASESVDSYGNSFMHWYQQKPGQPPKLLIYRASNLESGIPARFSGSGSRTDFTLTINPVEADDVATYYCQQSNEDPYTFGGGTKLEIK | 1 mAb per LIGHT trimer | 114% | 79.8% | 16 nM | 0.34 nM | 47.1 | – | – | – | –
3 | 3A07 (antibody, human IgG4, V domains shown, chimeric human IgG4 (S-to-P, L-to-E at 248), human CL; also called Parental 3A07) VH: QVQLQQSGAELVRPGAPVTLSCKASDYTFTDSEIHWVKQTPVHGLEWIGEIDPETGGTAYNQKFKGKATLTADKSSSTAYMELRSLTSEDSAVYYCSRETDYFFDYWGQGTTLTVSS VL: ENVLTQSPAIMSASPGEKVTMTCSASSSVSYMYWYQQRPGSSPRLLIYDTSNLASGVPVRFSGSGSGTSYSLTISRMEAEDAATYYCQQWSSYPLTFGSGTKLEIK | 1 mAb per LIGHT trimer | 102% | 67.5% | 15.8 nM | 0.15 nM | 105 | – | – | – | –
4 | 3B04 (antibody, human IgG4, V domains shown, chimeric: mouse variable domains on human IgG4 HC (S-to-P and L-to-E at 248) and human CL; also called Parental 3B04; 3B04 chimeric) VH: QVQLQQPGAELVRPGASVTLSCKASGYTFTDYEMHWVKQTPVHGLEWIGEIDPETGDTAYSQKFKGKATLTADKSSSTAYMEFRSLTSEDSAVYYCSRETDYFFDYWGQGTTLTVSS VL: DIQMTQTPASLSASVGETVTITCGASENIYGALNWYQRKQGKSPQLLIYGATNLADGMSSRFSGSGSGRQYSLKISSLHPDDFATYYCQNVLTTPWTFGGGTKLEIKR | – | 94.8% | 85.1% | 11.1 nM | 0.21 nM | 52.9 | 13.8 nM | 0.00345 s⁻¹ | 251000 M⁻¹ s⁻¹ | 1 mAb per LIGHT trimer
5 | 3D12 (antibody, human IgG4, V domains shown, chimeric: mouse variable domains on human IgG4 HC (S-to-P and L-to-E at 248) and human CL; also called Parental 3D12; 3D12 chimeric) VH: QVQLQQPGAELVRPGASVTLSCKASDYTFTDSEIHWVKQTPVHGLEWIGEIDPETGGTAYNQKFKGKATLTADKSSSTAYMELRSLTSEDSAVYYCSRETDYFFDYWGQGTTLTVSS VL: DIQMTQSPASLSASVGETVTITCGASENIYGALNWYQRKQGKSPQLLIYGATNLADGMSSRFSGSGSGRQYSLKISSLHPDDVATYYCQNVLSTPWTFGGGTKLEIKR | – | 99.4% | 78.1% | 3.6 nM | 0.19 nM | 18.9 | 10.7 nM | 0.00234 s⁻¹ | 219000 M⁻¹ s⁻¹ | 1 mAb per LIGHT trimer

Second part, led by results:

Row | binding ratio, mAb per LIGHT trimer [1] | DcR3-His binding, % of irrelevant mAb [2] | DcR3-His binding, % of irrelevant mAb [3] | Kd [4] | Kd [5] | Membrane:soluble LIGHT affinity ratio [6] | Binder | Kd [7] | koff [7] | kon [7] | binding ratio, mAb per LIGHT trimer [8]
6 | 1 mAb per LIGHT trimer | 94.2% | 70.5% | – | – | – | 3E09 (antibody, V domains shown, chimeric human IgG4 (S-to-P, L-to-E at 248), human CL; also called Parental 3E09) VH: EVQLVESGGGLVKPGGSLKLSCEASGFTFSDYYMYWVRQTPEKRLEWVAAIGDGGIYTYYADTVKGRFTISRDNAKNILYLQMSSLKSNDTAMYYCARGTGDGFAYWGQGTLVTVS VL: DIVLTQSPASLAVSLGQRATISCRASESVDSYGNSFMHWYQQKPGQPPKLLIYLASNLESGVPARFSGSGSRTDFTLTIDPVEADDAATYYCQQNNEDPYTFGGGTKLEIK | – | – | – | –
7 | 1 mAb per LIGHT trimer | 124% | 81.9% | 11 nM | 0.18 nM | 61.1 | 3C10 (antibody, human IgG4, V domains shown, chimeric human IgG4 (S-to-P, L-to-E at 248), human CL; also called Parental 3C10) VH: EVQLQQSGAELVRPGASVTLSCKASDYTFTDSEIHWVKQTPVHGLEWIGEIDPETGGTAYNQKFKGKATLTADKSSSTAYMELRSLTSEDSAVYYCSRETDYFFDYWGQGTTLTVSS VL: DVVMTQTPAIMSASPGEKVTMTCSASSSVSYMYWYQQKPGSSPRLLIYDTSNLASGVPVRFSGSGSGTSYSLTISRMEAEDAATYYCQQWSSYPLTFGAGTKLELK | – | – | – | –
